These results are taken from patent US20150258192A1, “COMPOSITIONS AND METHODS FOR PREVENTING OR TREATING CHRONIC LUNG ALLOGRAFT DYSFUNCTION (CLAD) AND IDIOPATHIC PULMONARY FIBROSIS (IPF)” (priority 2014, published 2015).

No end group written: not given here.

What all share (experiment): Kinase Profiling Assay
Format in all cases: biochemical
Common to all, as to conditions: peptide 100 μM

One assay has as its target T1, PhKγ2(h) (Homo sapiens, UniProt P15735).
T1 sequence (P15735 1-406): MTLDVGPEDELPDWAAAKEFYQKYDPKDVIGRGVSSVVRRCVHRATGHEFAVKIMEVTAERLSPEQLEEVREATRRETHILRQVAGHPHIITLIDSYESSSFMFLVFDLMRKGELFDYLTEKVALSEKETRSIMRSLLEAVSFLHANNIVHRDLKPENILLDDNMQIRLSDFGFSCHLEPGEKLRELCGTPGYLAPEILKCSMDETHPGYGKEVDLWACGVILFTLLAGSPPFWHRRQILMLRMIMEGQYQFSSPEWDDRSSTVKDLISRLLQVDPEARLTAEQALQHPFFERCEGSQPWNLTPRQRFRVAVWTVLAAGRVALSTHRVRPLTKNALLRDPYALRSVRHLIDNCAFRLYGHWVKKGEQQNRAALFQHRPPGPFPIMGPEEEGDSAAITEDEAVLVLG
The procedure, abridged:
(§1)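 Each kinase activity was measured in duplicate. Phosphorylation of a positively charged substrate with radiolabeled phosphate from ATP was captured on a negatively charged filter, counted by scintillation and expressed relative to a 100% activity control. MK2 inhibitory peptides were screened for specificity across 266 human kinases.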

Another assay concerns the target Ret(V804M)(h) (Homo sapiens, UniProt P07949, V804M). Put shortly:
as §1

The target in another assay is T2, PRAK(h) (Homo sapiens, UniProt Q8IW41).
T2 sequence (Q8IW41 1-473): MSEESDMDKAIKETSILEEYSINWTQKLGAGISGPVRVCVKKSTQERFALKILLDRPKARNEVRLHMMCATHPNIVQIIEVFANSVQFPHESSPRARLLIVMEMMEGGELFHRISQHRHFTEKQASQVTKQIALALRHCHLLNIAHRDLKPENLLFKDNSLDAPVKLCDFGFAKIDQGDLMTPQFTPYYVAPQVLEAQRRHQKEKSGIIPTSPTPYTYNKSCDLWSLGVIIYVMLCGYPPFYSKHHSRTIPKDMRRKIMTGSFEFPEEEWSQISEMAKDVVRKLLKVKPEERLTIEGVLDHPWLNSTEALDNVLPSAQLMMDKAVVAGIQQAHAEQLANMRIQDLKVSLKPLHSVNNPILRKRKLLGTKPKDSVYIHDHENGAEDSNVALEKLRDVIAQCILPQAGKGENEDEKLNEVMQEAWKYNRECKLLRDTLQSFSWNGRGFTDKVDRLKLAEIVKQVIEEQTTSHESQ
Put shortly: as §1

In a further assay the target is CDK3/cyclinE(h) (Homo sapiens, UniProt Q00526). The procedure, abridged:
as §1

In a further assay the target is Yes(h) (Homo sapiens, UniProt P07947). The procedure, abridged: as §1
Sequence of Yes(h) (P07947 whole entry): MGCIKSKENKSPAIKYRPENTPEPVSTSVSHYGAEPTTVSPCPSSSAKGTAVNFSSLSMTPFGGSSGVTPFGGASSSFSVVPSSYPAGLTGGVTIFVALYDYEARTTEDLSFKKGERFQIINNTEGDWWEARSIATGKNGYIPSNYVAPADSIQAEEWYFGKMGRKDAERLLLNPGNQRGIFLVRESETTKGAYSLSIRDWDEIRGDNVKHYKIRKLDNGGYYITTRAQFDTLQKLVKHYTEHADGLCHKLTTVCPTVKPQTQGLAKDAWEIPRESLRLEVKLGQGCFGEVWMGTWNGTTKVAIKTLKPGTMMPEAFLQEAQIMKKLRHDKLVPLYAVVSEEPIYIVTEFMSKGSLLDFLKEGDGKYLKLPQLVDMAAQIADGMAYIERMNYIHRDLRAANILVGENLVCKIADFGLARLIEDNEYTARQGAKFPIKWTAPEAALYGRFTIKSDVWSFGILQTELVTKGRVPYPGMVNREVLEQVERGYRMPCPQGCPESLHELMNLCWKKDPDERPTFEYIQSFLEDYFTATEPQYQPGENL
The next assay deals with Abl(Y253F)(h) (Homo sapiens, UniProt P00519, Y253F). Put shortly:
as §1

The next assay addresses BTK(R28H)(h) (Homo sapiens, UniProt Q06187, R28H). Put shortly:
as §1

In another assay the target is T3, MRCKβ(h) (Homo sapiens, UniProt Q9Y5S2).
T3 construct: purchased Millipore
T3 sequence (Q9Y5S2 whole entry): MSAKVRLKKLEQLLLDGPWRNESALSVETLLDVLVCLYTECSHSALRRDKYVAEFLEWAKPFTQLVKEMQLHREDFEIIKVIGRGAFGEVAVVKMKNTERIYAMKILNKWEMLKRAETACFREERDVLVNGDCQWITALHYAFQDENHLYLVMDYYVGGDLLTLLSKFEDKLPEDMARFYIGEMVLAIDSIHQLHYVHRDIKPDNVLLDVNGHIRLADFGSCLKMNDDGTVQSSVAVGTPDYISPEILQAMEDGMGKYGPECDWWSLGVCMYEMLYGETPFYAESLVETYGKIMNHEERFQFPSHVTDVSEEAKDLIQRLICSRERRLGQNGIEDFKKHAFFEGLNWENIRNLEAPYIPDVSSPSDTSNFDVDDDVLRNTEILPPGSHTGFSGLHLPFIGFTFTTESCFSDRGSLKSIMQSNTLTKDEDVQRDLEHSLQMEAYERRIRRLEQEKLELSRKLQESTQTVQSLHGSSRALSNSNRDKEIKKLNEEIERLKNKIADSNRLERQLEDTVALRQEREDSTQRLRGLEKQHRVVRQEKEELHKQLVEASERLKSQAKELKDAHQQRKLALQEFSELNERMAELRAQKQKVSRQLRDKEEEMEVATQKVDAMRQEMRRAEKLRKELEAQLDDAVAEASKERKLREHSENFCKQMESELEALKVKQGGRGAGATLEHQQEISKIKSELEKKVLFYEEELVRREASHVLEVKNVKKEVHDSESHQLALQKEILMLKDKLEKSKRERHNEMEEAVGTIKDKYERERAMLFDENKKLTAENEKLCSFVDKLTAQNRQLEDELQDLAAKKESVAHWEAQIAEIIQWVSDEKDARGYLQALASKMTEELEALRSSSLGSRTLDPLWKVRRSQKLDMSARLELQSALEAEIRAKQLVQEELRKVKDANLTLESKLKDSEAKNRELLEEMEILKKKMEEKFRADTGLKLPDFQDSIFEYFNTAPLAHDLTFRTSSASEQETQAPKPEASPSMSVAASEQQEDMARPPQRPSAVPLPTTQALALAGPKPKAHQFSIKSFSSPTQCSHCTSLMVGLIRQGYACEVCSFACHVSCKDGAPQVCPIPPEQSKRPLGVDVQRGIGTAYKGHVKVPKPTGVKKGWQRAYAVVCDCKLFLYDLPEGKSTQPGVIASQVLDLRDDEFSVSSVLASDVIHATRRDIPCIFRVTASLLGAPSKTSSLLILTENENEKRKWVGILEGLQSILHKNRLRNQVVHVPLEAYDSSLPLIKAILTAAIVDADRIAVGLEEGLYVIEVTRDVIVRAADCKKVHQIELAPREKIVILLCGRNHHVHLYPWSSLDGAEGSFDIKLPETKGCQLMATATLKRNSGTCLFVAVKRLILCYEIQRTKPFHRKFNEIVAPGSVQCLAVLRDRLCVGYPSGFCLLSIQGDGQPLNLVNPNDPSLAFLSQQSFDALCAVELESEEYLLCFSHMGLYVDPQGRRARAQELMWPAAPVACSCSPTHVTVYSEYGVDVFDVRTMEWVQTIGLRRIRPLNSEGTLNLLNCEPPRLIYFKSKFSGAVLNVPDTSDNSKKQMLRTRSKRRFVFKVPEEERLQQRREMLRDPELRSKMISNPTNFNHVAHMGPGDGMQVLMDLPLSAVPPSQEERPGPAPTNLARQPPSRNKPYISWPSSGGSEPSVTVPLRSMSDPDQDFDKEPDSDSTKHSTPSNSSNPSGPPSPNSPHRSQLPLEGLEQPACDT
Put shortly: as §1

The target in a further assay is T4, MKK6(h) (Homo sapiens, UniProt P52564).
T4 construct: purchased Millipore
T4 sequence (P52564 1-334): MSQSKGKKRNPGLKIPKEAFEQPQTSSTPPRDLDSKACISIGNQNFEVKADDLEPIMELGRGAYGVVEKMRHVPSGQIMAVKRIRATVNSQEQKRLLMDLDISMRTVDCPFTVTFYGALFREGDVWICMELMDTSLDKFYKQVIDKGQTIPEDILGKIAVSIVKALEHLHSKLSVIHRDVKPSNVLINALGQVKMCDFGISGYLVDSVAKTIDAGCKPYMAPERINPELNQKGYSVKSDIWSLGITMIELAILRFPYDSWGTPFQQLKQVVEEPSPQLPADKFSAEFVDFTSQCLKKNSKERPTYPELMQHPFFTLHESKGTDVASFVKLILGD
The procedure, abridged: as §1

In the next assay the target is Aurora-B(h) (Homo sapiens, UniProt Q96GD4). Put shortly: as §1
Sequence of Aurora-B(h) (Q96GD4 whole entry): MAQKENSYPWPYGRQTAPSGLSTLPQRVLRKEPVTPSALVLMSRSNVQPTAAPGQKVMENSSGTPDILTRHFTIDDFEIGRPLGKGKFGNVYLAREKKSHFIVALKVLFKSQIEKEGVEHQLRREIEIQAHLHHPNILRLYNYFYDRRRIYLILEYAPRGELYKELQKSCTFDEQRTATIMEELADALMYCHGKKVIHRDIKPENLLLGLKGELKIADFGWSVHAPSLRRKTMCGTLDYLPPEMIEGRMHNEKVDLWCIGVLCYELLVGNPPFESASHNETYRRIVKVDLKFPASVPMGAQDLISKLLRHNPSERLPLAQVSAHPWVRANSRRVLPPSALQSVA
Another assay addresses T5, SAPK4(h) (Homo sapiens, UniProt O15264).
T5 construct: purchased Millipore
T5 sequence (O15264 1-365): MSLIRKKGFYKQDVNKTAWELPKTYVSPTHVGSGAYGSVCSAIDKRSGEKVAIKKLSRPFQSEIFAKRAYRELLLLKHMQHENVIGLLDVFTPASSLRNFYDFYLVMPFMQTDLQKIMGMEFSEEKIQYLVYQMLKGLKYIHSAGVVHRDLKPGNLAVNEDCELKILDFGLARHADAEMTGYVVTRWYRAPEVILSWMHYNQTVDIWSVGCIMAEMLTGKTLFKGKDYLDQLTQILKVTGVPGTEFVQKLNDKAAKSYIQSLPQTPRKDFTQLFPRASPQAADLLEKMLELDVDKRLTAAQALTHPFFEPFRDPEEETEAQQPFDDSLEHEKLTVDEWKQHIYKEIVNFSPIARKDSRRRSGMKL
Put shortly:
as §1

The target in the next assay is Fyn(h) (Homo sapiens, UniProt P06241). The procedure, abridged:
as §1

The target in a further assay is ACK1(h) (Homo sapiens, UniProt Q07912). The procedure, abridged: as §1

Sequence of BTK(R28H)(h) (Q06187 whole entry R28H): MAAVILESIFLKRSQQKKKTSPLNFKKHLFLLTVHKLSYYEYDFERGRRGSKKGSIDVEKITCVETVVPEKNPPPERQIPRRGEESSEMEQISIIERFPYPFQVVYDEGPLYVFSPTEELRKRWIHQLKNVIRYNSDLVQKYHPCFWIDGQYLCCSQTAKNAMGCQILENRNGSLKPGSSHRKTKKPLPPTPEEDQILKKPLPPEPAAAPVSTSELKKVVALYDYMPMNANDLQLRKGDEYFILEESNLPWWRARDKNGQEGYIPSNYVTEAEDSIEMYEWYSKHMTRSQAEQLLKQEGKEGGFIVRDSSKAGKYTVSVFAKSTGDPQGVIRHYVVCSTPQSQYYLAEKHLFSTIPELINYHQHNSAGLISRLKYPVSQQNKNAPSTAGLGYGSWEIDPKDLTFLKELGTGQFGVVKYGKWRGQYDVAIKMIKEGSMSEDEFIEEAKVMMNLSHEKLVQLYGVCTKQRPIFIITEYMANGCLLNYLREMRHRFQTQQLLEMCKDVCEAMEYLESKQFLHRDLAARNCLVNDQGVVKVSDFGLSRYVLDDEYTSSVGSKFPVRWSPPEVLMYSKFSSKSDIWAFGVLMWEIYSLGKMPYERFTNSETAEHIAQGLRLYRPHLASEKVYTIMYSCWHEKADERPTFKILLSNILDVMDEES
Sequence of CDK3/cyclinE(h) (Q00526 whole entry): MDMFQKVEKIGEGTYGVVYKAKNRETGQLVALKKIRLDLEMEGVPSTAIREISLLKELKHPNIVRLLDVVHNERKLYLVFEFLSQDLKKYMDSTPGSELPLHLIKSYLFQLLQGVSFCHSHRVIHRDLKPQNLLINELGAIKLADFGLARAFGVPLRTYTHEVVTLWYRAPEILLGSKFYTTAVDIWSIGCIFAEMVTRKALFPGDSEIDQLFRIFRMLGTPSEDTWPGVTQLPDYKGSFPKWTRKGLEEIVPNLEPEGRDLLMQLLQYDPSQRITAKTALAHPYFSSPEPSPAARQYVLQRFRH
Sequence of CDK3/cyclinE(h) (P24864 whole entry partner): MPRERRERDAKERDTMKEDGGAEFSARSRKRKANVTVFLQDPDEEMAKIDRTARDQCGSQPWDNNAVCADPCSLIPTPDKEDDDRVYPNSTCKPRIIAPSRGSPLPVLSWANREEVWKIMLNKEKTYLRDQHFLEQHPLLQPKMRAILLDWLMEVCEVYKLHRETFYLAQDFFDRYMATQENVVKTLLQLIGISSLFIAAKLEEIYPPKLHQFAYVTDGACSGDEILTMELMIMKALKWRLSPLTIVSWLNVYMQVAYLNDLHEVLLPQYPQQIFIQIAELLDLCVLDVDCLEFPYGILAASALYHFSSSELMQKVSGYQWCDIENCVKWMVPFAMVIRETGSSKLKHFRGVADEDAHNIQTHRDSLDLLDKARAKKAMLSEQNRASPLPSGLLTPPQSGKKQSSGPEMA
Sequence of Fyn(h) (P06241 whole entry): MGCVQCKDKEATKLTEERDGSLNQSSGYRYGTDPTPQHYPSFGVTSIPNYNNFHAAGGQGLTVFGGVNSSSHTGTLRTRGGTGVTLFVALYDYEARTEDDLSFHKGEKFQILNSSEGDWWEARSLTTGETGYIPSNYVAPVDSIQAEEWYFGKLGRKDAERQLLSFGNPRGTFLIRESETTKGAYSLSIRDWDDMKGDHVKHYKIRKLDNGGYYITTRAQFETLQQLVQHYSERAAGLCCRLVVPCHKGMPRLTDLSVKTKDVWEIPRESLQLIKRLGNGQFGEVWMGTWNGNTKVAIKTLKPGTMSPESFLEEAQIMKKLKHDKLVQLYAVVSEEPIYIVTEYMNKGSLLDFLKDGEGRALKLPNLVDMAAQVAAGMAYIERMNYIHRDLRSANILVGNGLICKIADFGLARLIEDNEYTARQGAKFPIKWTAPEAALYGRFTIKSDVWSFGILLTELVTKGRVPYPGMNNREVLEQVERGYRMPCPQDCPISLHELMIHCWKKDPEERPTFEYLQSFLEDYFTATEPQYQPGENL

With FAKLAARLYRKALARQLGVAA [MMI-0300], the “% activity” value with PhKγ2(h) is recorded as 46%; with Ret(V804M)(h), 95%; in the assay with PRAK(h), 128%; with CDK3/cyclinE(h) it was 94%; with Yes(h) it was 67%; with Abl(Y253F)(h) it was 86%. Moreover, the “% activity” value with BTK(R28H)(h) was 74%; with MRCKβ(h), 83%; in the assay with MKK6(h), 48%; in the assay with Aurora-B(h) it was 128%; with SAPK4(h) it was 96%; in the assay with Fyn(h) it was 74%.
With “HRRIKAWLKKIKALARQLGVAA (Mammal) [MMI-0500]”, the “% activity” value stood at 64% with ACK1(h); 16% with PhKγ2(h); 36% with Ret(V804M)(h); 95% in the assay with PRAK(h); 8% with CDK3/cyclinE(h); 29% in the assay with Abl(Y253F)(h). The “% activity” value with BTK(R28H)(h) is 10%; with MRCKβ(h), -10%; with MKK6(h), 18%; with Aurora-B(h), 5%; with SAPK4(h), 48%; in the assay with Fyn(h), 83%.
Take KAFAKLAARLYRKALARQLGVAA [MMI-0400]: the “% activity” value worked out at 95% with ACK1(h); 38% with PhKγ2(h); 87% with Ret(V804M)(h); 118% in the assay with PRAK(h); 92% with CDK3/cyclinE(h); 14% with Yes(h). The “% activity” value in the assay with Abl(Y253F)(h) turned out to be 78%; with BTK(R28H)(h), 24%; with MRCKβ(h), 71%; with MKK6(h), 44%; with Aurora-B(h) it was 150%; with SAPK4(h), 91%. Besides, the “% activity” value with Fyn(h) is on record as 54%.
Regarding YARAAARQARAKALARQLGVAA [MMI-0100], the “% activity” value was found to be 92% on Ret(V804M)(h), 159% at PRAK(h) and 91% on BTK(R28H)(h).
As to “YARAAARQARAKALNRQLGVA (Mammal) [MMI-0200]”, the “% activity” value with ACK1(h) came to 97%; in the assay with PhKγ2(h), 86%; with Yes(h) it was 93%; with MKK6(h) it was 98%; with Aurora-B(h) it was 166%; with Fyn(h) it was 75%.
